Paper PMC11284679, “A designed ankyrin-repeat protein that targets Parkinson’s disease-associated LRRK2” (The Journal of Biological Chemistry, 2024)

How the values were obtained:
[1] = target: LRRK2^RCKW (purified for cryo-EM from His6-Z-TEV-LRRK2^RCKW); test: mass photometry; Refeyn Two MP; LRRK2^RCKW alone or with a 2.5-fold excess of DARPin E11; 20 mM Hepes pH 7.4, 150 mM NaCl, 2.5 mM MgCl2, 5% glycerol, 20 μM GDP, 0.5 mM TCEP
[2] = target: T1, biotinylated LRRK2^RCKW (LRRK2 residues 1327 to 2527) (UniProt Q5S007 1327-2527, biotin (biotinylated; site not stated)); test: SPR; Biacore T200; 850 RU biotinylated LRRK2^RCKW on a streptavidin-coated Series S CM5 chip; DARPin E11 in the mobile phase, 30 μl/min; 20 mM Hepes pH 7.4, 150 mM NaCl, 0.5 mM TCEP, 20 μM GDP, 2.5 mM MgCl2; plateau values fitted to a Langmuir model; conditions: both partners purified
T1 construct: Leucine rich repeat kinase 2 (LRRK2), C-terminal catalytic half with ROC GTPase, COR-A, COR-B, kinase and WD40 domains, residues 1327 to 2527; also called biotinylated LRRK2^RCKW protein; source: Sf9 (baculovirus, medium with 0.1 mM biotin), purified (Ni-NTA, TEV, Ni-NTA, S200 gel filtration); not shown: His6, N-terminal, cleaved
T1 sequence (looked up): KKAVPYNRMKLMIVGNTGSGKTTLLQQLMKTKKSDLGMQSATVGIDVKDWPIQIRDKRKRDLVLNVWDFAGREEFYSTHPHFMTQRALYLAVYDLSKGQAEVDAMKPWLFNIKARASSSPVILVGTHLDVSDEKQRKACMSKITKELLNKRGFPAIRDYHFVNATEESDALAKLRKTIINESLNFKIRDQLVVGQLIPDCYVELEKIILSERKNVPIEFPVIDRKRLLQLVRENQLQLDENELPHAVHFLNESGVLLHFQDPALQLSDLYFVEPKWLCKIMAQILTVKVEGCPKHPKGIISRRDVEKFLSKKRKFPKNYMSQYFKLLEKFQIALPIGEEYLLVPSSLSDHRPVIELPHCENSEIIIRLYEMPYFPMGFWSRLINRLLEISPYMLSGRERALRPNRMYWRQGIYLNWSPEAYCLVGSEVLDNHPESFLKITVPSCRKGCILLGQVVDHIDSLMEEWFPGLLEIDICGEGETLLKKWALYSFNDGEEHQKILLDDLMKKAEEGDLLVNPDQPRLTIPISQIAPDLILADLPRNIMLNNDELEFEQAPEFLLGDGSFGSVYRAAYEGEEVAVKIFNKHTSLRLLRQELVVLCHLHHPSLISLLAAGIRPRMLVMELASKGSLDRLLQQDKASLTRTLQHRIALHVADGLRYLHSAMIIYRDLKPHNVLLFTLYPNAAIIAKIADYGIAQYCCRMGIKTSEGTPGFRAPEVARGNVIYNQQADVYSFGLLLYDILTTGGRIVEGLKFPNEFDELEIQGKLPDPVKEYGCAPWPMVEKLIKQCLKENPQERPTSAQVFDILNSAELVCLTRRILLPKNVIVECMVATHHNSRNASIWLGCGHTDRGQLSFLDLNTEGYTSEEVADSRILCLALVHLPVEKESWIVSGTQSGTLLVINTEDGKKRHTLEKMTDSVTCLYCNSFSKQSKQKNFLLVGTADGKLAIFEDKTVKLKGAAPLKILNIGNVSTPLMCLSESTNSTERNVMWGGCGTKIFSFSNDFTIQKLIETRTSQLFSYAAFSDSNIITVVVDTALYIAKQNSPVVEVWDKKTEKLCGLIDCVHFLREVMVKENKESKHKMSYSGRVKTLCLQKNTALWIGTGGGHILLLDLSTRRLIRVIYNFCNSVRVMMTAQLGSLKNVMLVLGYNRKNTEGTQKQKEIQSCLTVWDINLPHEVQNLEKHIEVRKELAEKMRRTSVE

[3] = target: T1, biotinylated LRRK2^RCKW (LRRK2 residues …); test: BLI; Octet Red96, 25 °C; biotinylated LRRK2^RCKW on streptavidin biosensors; DARPin E11 15 to 1000 nM; 50 mM Hepes pH 8.0, 150 mM NaCl, 10 mM MgCl2, 5% glycerol, 0.1% BSA, 0.05% Tween 20, 500 μM GDP; Req fitted to a Langmuir model; conditions: both partners purified

stoichiometry N [1]: 1 | Kd [2]: 70 nM | koff [2]: ~0.005 s⁻¹ | Kd [3]: 11 nM
B1: DARPin E11 (designed binder)
chain: MRGSHHHHHHHHGSDLGKKLLEAARAGQDDEVRILMANGADVNATDEAGVTPLHLAADSGHLEIVEVLLKTGADVNAWDHYGFTPLHLAAHVGHLEIVEVLLKAGADVNAQDHAGWTPLHLAALYGHLEIVEVLLKHGADVNAQDMWGETPFDLAIDNGNEDIAEVLQKAAKLNDYKDDDDK
notes: Designed ankyrin-repeat protein selected by ribosome display against LRRK2^RCKW; also called 008-807-2362-H9; 8xHis-DARPin E11-3xFLAG; source: E. coli Rosetta, purified (Ni-NTA, SEC)
